Assay [1] deals with T1, recombinant Plasmodium falciparum circumsporozoite protein (CSP) (Plasmodium falciparum, UniProt Q7K740 21-375).
T1 construct: also called recombinant CSP
The assay is described as follows: binding affinity column of the in vivo table (SPR, CSP).

The target of assay [2] is T1, recombinant Plasmodium falciparum …. The assay is described as follows: SPR, recombinant CSP. (SPR reads the build-up and loss of mass on a sensor chip optically.)
Assay [3] deals with T2, recombinant SPOCK1 protein (human, UniProt Q08629 22-439).
T2 sequence (looked up): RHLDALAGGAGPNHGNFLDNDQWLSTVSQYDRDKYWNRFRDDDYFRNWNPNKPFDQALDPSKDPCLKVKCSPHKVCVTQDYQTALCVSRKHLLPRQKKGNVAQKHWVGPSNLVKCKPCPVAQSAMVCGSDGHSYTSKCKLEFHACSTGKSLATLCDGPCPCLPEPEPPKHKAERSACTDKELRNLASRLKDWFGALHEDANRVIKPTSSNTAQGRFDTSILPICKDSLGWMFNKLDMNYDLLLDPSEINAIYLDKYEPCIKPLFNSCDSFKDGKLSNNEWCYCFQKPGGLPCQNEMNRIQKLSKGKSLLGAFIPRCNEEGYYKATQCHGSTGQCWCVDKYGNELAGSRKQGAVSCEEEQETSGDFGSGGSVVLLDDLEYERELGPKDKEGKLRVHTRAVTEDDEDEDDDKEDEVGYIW
The assay is described as follows: SPR with recombinant protein.

Where “and” joins values, the source holds several entries; their conditions need not be identical. Identical values can stand only once.

For orientation: Kd means the free concentration of one partner at which half of the binding sites on the other are occupied at equilibrium, for simple one-to-one binding. A word on the koff: it is the first-order rate constant of dissociation. The term kon denotes a measure of how fast the partners come together.

T1 sequence (Q7K740 21-375 limits assumed): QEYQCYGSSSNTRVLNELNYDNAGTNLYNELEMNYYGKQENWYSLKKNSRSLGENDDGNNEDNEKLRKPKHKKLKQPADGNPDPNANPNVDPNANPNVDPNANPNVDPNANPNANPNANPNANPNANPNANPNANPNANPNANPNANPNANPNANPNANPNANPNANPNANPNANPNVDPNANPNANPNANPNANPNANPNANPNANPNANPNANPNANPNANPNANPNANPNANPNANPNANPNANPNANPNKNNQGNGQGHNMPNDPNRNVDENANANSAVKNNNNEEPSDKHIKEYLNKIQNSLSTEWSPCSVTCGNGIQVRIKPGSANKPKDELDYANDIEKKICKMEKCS

B1: AB001533 (antibody, V domains shown)
VH: QVQLVESGGGVVQPGRSLRLSCAASGFTFNSYGMHWVRQAPGKGLEWVALISFDGTNKFYADSVKGRFTISRDNSKNTLYLQMNSLRAEDTALYHCATDSLFYYDFHLFDYWGQGTLVTVSS
VL: DIVLTQTPLSSPVTLGQPASISCRSSQSLVYSDGNTYLNWLQQRPGQPPRLLIYKISNRFSGVPDRFSGSGAGTDFTLKISRVEAEDVGVYYCMQATQLYTFGQGTKLEIK
As for B1, the dissociation constant Kd in assay [1] was 0.248 nM. For the same molecule, in assay [2], the Kd stood at 0.248 nM, the koff was found to be 0.000669 s⁻¹ and the kon was 2.69e+06 M⁻¹ s⁻¹.

B2: AB-000222 (antibody, V domains shown)
VH: QVQLVESGGGVVQPGRSLRLSCAASGFTFSNFGMHWVRQAPGKGLEWVAVIWYDGSKKYYADFVKGRFTISRDNSKYMLYLQMTSLGAEDTAIYYCARDIRGAYRVTDGGFDYWGQGALVTVSS
VL: QFVLTQPPSVSGAPGQRVTISCTGSSFNIGAGYDVHWYQQLPEKAPKLLIYGSTNRASEVPDRFSGSKSGTSASLAITGLQPEDEADYYCQSYDSSLSGYVFGTGTKVTVL
Regarding B2, in assay [1], the Kd amounted to 0.152 nM. For the same molecule, in assay [2], the equilibrium dissociation constant (Kd) is 0.153 nM and 0.152 nM; the off-rate constant (koff) is 0.00118 s⁻¹; the kon was determined as 7.76e+06 M⁻¹ s⁻¹.

B3: AB-000373 (antibody, V domains shown)
VH: QVLLVESGGGVVQPGGSLRLSCTASGFTFKNYGMHWVRQAPGKGLEWVAVIWFDGSNEFYADSVEGRFTISRDNSKNTLYLQTNSLRAEDTAVYYCARSYTSSWLGFDFWGQGTLVTVSS
VL: DAVMTQTPLSLSVTPGQPASISCKSGQSLLHSDGKTYLYWYLQKPGQSPQLLIYEVSSRFSGVPDRFSGSGSGTDFTLKISRVEAEDVGVYYCMRGIHPRTFGQGTKVEIK
Consider B3, for which the Kd in assay [1] was determined as 0.0592 nM. Besides, in assay [2], the equilibrium dissociation constant (Kd) is 0.0592 nM, the koff was determined as 0.00152 s⁻¹ and the on-rate constant (kon) was 2.58e+07 M⁻¹ s⁻¹.

B4: AB-000394 (antibody, V domains shown)
VH: QAQPVESGGGVVQPGKSLRLSCAASGFTFRNFGMHWVRQAPGKGLEWVAVIWHDGSNQFYADSVEGRFTISRDNSKNTLYLQMDSLRVEDTAMYYCARDRGYSGSWGYFDHWGQGTLVTVSS
VL: EIVLTQSPATLSLSPGERATLSCRASQSISDYLAWYQQKPGQAPRLLIYDASFRATGIPARFSGSGSGTDFTLTISSLEPEDFAVYYCQQRSIGFTFGPGTKVDIK
Turning to B4, the dissociation constant (Kd) in assay [1] came to 0.105 nM. Also, in assay [2], the Kd turned out to be 0.105 nM, the koff was found to be 0.00156 s⁻¹ and the kon came out at 1.48e+07 M⁻¹ s⁻¹.

B5: AB-001545 (antibody, V domains shown)
VH: QVQLVESGGGVVQPGRSLRLSCAASGFTFSSYGMHWVRQAPGKGLEWVAVIWYDGSNKYYADSVKGRFTISRDNSKNTLYLQMNSLRAEDTAVYYCARDLDYSNHNWFDPWGQGTLVTVSS
VL: EIVLTQSPATLSLSPGERATLSCRASQSVSSYLAWYQQKPGQAPRLLIYDASNRATGIPARFSGSGSGTDFTLTISSLEPEDFAVYYCQQRSNWFTFGQGTRLEIK
On to B5, for which, in assay [2], the dissociation constant Kd turned out to be 4.96 nM, the dissociation rate constant (koff) was 0.000442 s⁻¹ and the association rate constant (kon) is 89000 M⁻¹ s⁻¹.

B6: AB001511 (antibody, V domains shown)
VH: QVQLVESGGGVVQPGRSLRLSCAASGFTFSSYGMHWVRQAPGKGLEWVAIIWYDGSNKYYADSVKGRFTISRDNSKNTLYLQMNSLRAEDTAVYYCARDTDDYYDAHTMDVWGQGTTVTVSS
VL: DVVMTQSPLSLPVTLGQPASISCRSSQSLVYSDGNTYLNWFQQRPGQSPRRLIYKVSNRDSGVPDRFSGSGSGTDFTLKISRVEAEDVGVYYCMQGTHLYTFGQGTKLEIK
As to B6, in assay [2], the dissociation constant (Kd) came out at 2.03 nM, the dissociation rate constant (koff) was 0.000525 s⁻¹ and the kon was determined as 259000 M⁻¹ s⁻¹.

B7: AB001428 (antibody, V domains shown)
VH: QVQLVESGGGVVQPGRSLRLSCVVSGFTFSSYGMHWVRQAPGKGLEWVAIIWYDGSKKYYADSVKGRFTISRDNSKNTLYLQMNSLRAEDTAVYYCARPGDSSGSHGEAFDIWGQGTMVTVSS
VL: DIQMTQSPSTLSASVGDRVTITCRPSQSISNWLAWYQQKPGKAPKLLIYKASSLESGVPSRFSGSGSGTEFTLTISGLQPDDFATYYCQQYNTYWTFGQGTKVEIK
As for B7, in assay [1], the dissociation constant Kd came to 1.18 nM. Further, in assay [2], the dissociation constant Kd amounted to 1.18 nM, the koff turned out to be 0.00101 s⁻¹ and the association rate constant (kon) stood at 855000 M⁻¹ s⁻¹.

B8: AB001480 (antibody, V domains shown)
VH: QVQLVESGGGVVQPGRSLRLSCAASGFTFSFYGMHWVRQAPGKGLEWVAVIWYDGSNKYYADSVRGRFTISRDNSKNTLYLQMNSLRAEDTAVYYCARVGNDYDDHGSALDMWGQGTMVTVSS
VL: DIQMTQSPSTLSASVGDRVTITCRASQSISSWLAWYQQKPGKAPKLLIYRASSLESGVPPRFSGSGSGTEFTLTISSLQPDDFGIYYCQQYNSRWTFGQGTKVEIK
As for B8, the Kd in assay [1] came out at 1.18 nM. Besides, in assay [2], the dissociation constant (Kd) is 1.17 nM and 1.18 nM; the off-rate (koff) amounted to 0.000659 s⁻¹; the kon came to 561000 M⁻¹ s⁻¹.

B9: AB-000231 (antibody, V domains shown)
VH: QVHLVESGGGVVQPGRSLRLSCAASGFTFRNYGIHWVRQAPGKGLEWVAVIWYDGSREFYADSVEGRFTVSRDNSKNTVFLQMNSLRVDDTAVYYCARAGYSDTSGYGDHWGQGTLVSVSS
VL: QSVLTQPPSVSGAPGQRVTISCTGGSSNIGAGYDVHWYQQLPGTAPKLLISHNNNRPSGVPDRFSGSKSGTSASLVIAGLQAEDEADYYCQSYDRRLSSSWVFGGGTRLTVLS
With B9, in assay [2], the Kd is 0.328 nM, the off-rate constant (koff) was 0.00142 s⁻¹ and the kon came to 4.34e+06 M⁻¹ s⁻¹.

B10: AB001455 (antibody, V domains shown)
VH: QVQLVESGGGVVQPGRSLRLSCAASGFTFSNYGMHWVRQAPGKGLEWVAIIWYDGSSKYYADSVRGRFTISRDNSKNTLFLQMNSLRAEDTAVYYCARDDYYSSAYNHLGYWGQGTLVTVSS
VL: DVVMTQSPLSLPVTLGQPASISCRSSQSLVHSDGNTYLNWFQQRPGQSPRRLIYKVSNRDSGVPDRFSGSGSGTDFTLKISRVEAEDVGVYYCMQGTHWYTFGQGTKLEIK
B10: the Kd in assay [1] worked out at 1.37 nM. Further, in assay [2], the equilibrium dissociation constant (Kd) was 1.37 nM, the koff was 0.000831 s⁻¹ and the kon amounted to 608000 M⁻¹ s⁻¹.

B11: AB-000356 LS (antibody, V domains shown)
VH: QVQLVESGGGVVQPGRSLRLSCAASGFTFRNFGMHWVRQTPGKGLEWVAVIWHDGSNKFYADSVEGRFTISRDNSKNMIYLQMNSLRVEDTAIYYCARDSLFYDHDNSGYYGYWGQGTLVTVSS
VL: QIVMTQSPATVSVSPGERATLSCRASRSVTSKLAWYQQKPGQAPRLLIYGASTRATGIPARFSGSGSGTEFTLTISSLQSEDFAVYFCQQYNNGFTFGPGTKVDFK
For B11, the Kd in assay [1] amounted to 2.46 nM. Moreover, in assay [2], the Kd came out at 2.46 nM, the koff came to 0.00107 s⁻¹ and the association rate constant (kon) was 436000 M⁻¹ s⁻¹.

B12: AB001472 (antibody, V domains shown)
VH: QVQLVESGGGVVQPGRSLRLSCAASGFTFSSYGMHWVRQAPGKGLEWVAVIWYDGSNKYYADSVKGRFTISRDNSQNTLFLQMNSLRAEDTAVYYCARVGEYSSSPDWGAAFDIWGQGTMVTVSS
VL: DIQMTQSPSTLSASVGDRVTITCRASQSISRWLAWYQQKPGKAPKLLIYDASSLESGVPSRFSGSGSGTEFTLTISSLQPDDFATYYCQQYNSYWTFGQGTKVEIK
For the molecule B12, the Kd in assay [1] came to 2.11 nM. In assay [2], the Kd was determined as 2.11 nM, the koff is 0.000518 s⁻¹ and the on-rate (kon) was 246000 M⁻¹ s⁻¹.

B13: AB-000338 LS (antibody, V domains shown)
VH: QVQLVESGGGVVQPGRSLRLSCAASGFSFSTYGMHWIRQVPGKGLEWVAIIWHDGSKEFYADSVKGRFTISRDNSKKKLYLQMNSLRAEDTAIYYCVKDDFDSSGHSYFHYWGQGTLVTVSS
VL: GVVMTQSPLSLPVTLGQPASISCRSSQSLVHSDGNTYVHWFQQRPGQSPRRLIYKVSNRDSGVPDRFSGSGSGTDFTLKISRVEAEDVGVYYCMQGTQWWTFGQGTKVEIK
As for B13, in assay [1], the dissociation constant (Kd) came to 0.13 nM. For the same molecule, in assay [2], the Kd amounted to 0.13 nM, the koff amounted to 0.00147 s⁻¹ and the kon worked out at 1.13e+07 M⁻¹ s⁻¹.

B14: 338-LS (antibody, V domains shown)
VH: QVQLVESGGGVVQPGRSLRLSCAASGFSFSTYGMHWIRQVPGKGLEWVAIIWHDGSKEFYADSVKGRFTISRDNSKKKLYLQMNSLRAEDTAIYYCVKDDFDSSGHSYFHYWGQGTLVTVSS
VL: GVVMTQSPLSLPVTLGQPASISCRSSQSLVHSDGNTYVHWFQQRPGQSPRRLIYKVSNRDSGVPDRFSGSGSGTDFTLKISRVEAEDVGVYYCMQGTQWWTFGQGTKVEIK
With B14, in assay [3], the binding result is recorded as “no binding (tested: 300 nM)”.

B15: AB001387 (antibody, V domains shown)
VH: QVQLVESGGGVVQPGRSLRLSCAASGFTFSNYGMHWVRQAPGKGLEWVAVIWYDGSNKFYADSVKGRFTSSRDNSKNTLYLQMNSLRAEDTAVYYCARDGRFLTTVTTAYFDYWGQGTLVTVSS
VL: QSVLTQPPSVSGAPGQRVTISCTGSSSNIGAGYDVHWYQQLPGTAPKLLIYGNSNRPSGVPDRFSGSKSGTSASLAITGLQAEDEADYYCQSYDSSLSALVFGGGTKLTVL
Take B15: the equilibrium dissociation constant (Kd) in assay [1] was determined as 0.676 nM. Moreover, in assay [2], the dissociation constant Kd was determined as 0.676 nM, the koff turned out to be 0.00111 s⁻¹ and the kon is 1.65e+06 M⁻¹ s⁻¹.

B16: AB001458 (antibody, V domains shown)
VH: EVQLVESGGGLVQPGRSLRLSCTASGFTFGDYAMSWFRQAPGKGLEWVSFIRSKTYGGSTEYAASVKGRFTISRDDSKSIAYLQMHSLKTEDTAFYYCTRVSAAAGVGDYWGQGTLVTVSS
VL: EIVMTQSPATLSVSPGERATLSCRASQSVGSNLAWYQQKPGQAPRLLIYGASTRATGLPARFSGSGSATEFTLTISSLQSEDFAVYYCQQYNTWWTFGQGTKVEIK
For B16, the dissociation constant Kd in assay [1] was 0.921 nM. For the same molecule, in assay [2], the dissociation constant (Kd) is 0.921 nM, the koff came to 0.00171 s⁻¹ and the kon came to 1.86e+06 M⁻¹ s⁻¹.

B17: AB-000327 (antibody, V domains shown)
VH: QVQLVESGGGVVQPGRSLRLSCAASRFTFKNYGMHWVRQGPGKGLEWVAVIWYDGSQEYYVDSVRGRFTISRDNSKDTLYLQMNSLRAEDTAVYYCVRDGRYRTSHQTSTGFFDLWGQGTLVTVSS
VL: QSMLTQPPSVSGAPGQRVTISCTGSSSNIGADYDVHWYQQLPGTAPKLLIYGNNNRPSGVPDRFSGSKSGTSASLAITGLQPEDEAEYYCQSYDSSLSGSFVFGTGTKVTVL
On to B17, for which the Kd in assay [1] was determined as 0.467 nM. For the same molecule, in assay [2], the Kd worked out at 0.467 nM, the koff was 0.00143 s⁻¹ and the kon is 3.06e+06 M⁻¹ s⁻¹.
